Results reported in US20230079150A1, “METHODS FOR PREVENTION OR TREATMENT OF VIRUS-INDUCED ORGAN INJURY OR FAILURE WITH IL-22 DIMER” (priority 2020, published 2023).
Read-outs that look alike come from different tables or passages of the source.

Tests used:
[1] = test system: H1N1 influenza (A/PR8 strain); type: in vivo, C57BL/6 mice; settings: aged mice; data not shown
C57BL/6 mice [2] = assay: LPS acute lung injury mouse model: lung RNA-seq pathway analysis; type: in vivo; settings: high-dose LPS injury; lung tissue
Experimental: (§1) After approval from the Tulane University, Institutional Animal Care and Use Committee (protocol ID 607), equal numbers of male and female, 6-8 week old C57BL/6 mice (Charles River Laboratories, Cambridge, Mass.) were given acute lung injury (ALI) via intra-tracheally administered LPS. After obtaining appropriate depth of anesthesia using isoflurane, the high-dose LPS group (HDG) received 100 μg of LPS administered intra-tracheally. Approximately 30 minutes after LPS administration, 4 μg of F-652 was administered via tail vein injection (n=11), then compared to animals receiving sham injection (n=8) with phosphate-buffered saline (PBS). […]
Lung tissue was homogenized in Trizol buffer (Life Technologies) and total RNA extraction was performed according to Trizol manufacturer's instructions. […] RNA quantity and quality were assessed using NanoDrop and Agilent RNA ScreenTape with Agilent 4150 TapeStation system. SMART-Seq Stranded total RNA sample prep kit (Takara Bio USA, Inc.) was used for library preparation as specified in the user manual, followed by Agilent DNA 1000 kit validation with Agilent 4150 TapeStation system and quantification by Qubit 2.0 fluorometer. […] Cluster generation and 1×75 bp single read single-indexed sequencing was performed by High-Output kit v2.5 (75 cycles) on Illumina NextSeq 550. Raw reads were processed and mapped. […]

mouse IL-22 = assay: LPS acute lung injury mouse model: endogenous mouse IL-22 ELISA in BAL; type: in vivo, mice; settings: low-dose LPS; F-652 4 μg tail vein; day 4; sham non-detectable
Experimental: as §1, with “(PBS). In the low-dose LPS group (LDG), 33.3 μg of LPS was administered intra-tracheally. F-652 was again administered at 30 minutes (n=9) and compared to sham injected animals (n=9).” for “(PBS).”
(§2) The BAL fluid was then centrifuged at 500×gravity for 5 minutes. […] To quantify protein in the BAL supernatant, a Bradford protein assay (Bio-Rad Laboratories) was performed. Protein was quantified by measuring absorbance at 595 nm on a BMG Labtech FLUOstar Optima plate reader. […] Human IL-22 was measured using an IL-22 Human ELISA kit (ThermoFisher Scientific). Mouse IL-22 was measured using an IL-22 Mouse/Rat Quantikine ELISA kit (R&D Systems).

[3] = LPS acute lung injury mouse model: human IL-22 ELISA in BAL; type: in vivo, mice; settings: high-dose LPS; F-652 4 μg tail vein; day 4; sham non-detectable
Experimental: as §1, with “(PBS). In the low-dose LPS group (LDG), 33.3 μg of LPS was administered intra-tracheally. F-652 was again administered at 30 minutes (n=9) and compared to sham injected animals (n=9).” for “(PBS).”
as §2

C57BL/6 mice [4] = assay: LPS acute lung injury mouse model: endothelial glycocalyx intensity in alveolar capillaries; type: in vivo
Experimental: as §1, with “(PBS). In the low-dose LPS group (LDG), 33.3 μg of LPS was administered intra-tracheally. F-652 was again administered at 30 minutes (n=9) and compared to sham injected animals (n=9).” for “(PBS).”
Paraformaldehyde-fixed lung segments were flash-frozen in Optimal Cutting Temperature (O.C.T) compound (Sakura) and sectioned on a cryostat. […] Glycocalyx and nuclei (4′,6-diamidino-2-phenylindole) were imaged on an Olympus BX51 fluorescence microscope under identical conditions. ImageJ software was used to quantify glycocalyx fluorescence intensity in the alveolar capillaries from a minimum of 20 regions of interest from 3 mice per condition.

SARS-CoV-2 = type: cell-based, human; settings: for sgm-N RNA copies compared to no F-652 treatment: MOI 0.1, 48 hours post challenge
STAT3 = settings: F-652 alone compared to control HUVECs
Experimental: To investigate the effects of F-652 on EGX, cultured HUVECs were exposed to either untreated media, 1 μg/mL of LPS, 1 μg/mL of LPS and 0.375 μg/mL of F-652, or 0.375 μg/mL of F-652 alone, for a total of 24 hours.
HUVECs were lysed in lysis buffer (50 mM Tris-HCl pH 7.5, 150 mM NaCl, 0.5 M EDTA, 1% Triton X-100, and Halt™ protease inhibitor cocktail). Proteins were quantified using Bio-Rad protein quantification assay (Bio-Rad Laboratories), and 20-50 μg of protein was separated by SDS-polyacrylamide gel electrophoresis (SDS-PAGE) on a 4-12% gradient acrylamide gel run at 100 V. Proteins were then transferred to 0.45 m PVDF membrane at 30 V for 2 hours. Membranes were blocked in Tris Buffered Saline (TBS: 137 mM NaCl, 20 mM Tris Base), 0.1% Tween 20, and 5% bovine serum albumin (blocking solution) for 1 hour, followed by overnight incubation with primary antibody diluted in TBS, 0.1% Tween 20, and 3% BSA, and 1 hour incubation with horseradish peroxidase-conjugated secondary antibody diluted at 1:5,000. […] Immunoreactive protein was detected using ECL (GE Healthcare) imaged on a Bio-Rad ChemiDoc™ MP Imaging System.

C57BL/6 mice [5] = assay: LPS acute lung injury mouse model: histopathology score; type: in vivo
Experimental: as §1, with “(PBS). In the low-dose LPS group (LDG), 33.3 μg of LPS was administered intra-tracheally. F-652 was again administered at 30 minutes (n=9) and compared to sham injected animals (n=9).” for “(PBS).”
Immediately after sacrifice, lung tissue from the right lower lobe was fixed in 4% paraformaldehyde and cut into sections. […] Lung injury induced by LPS was assessed by a blinded reviewer with a numerical scoring scale ranging from 0-4. Regions of lung injury in sections were scored for the extent of intimal thickening, alveolitis, and the presence of proteinaceous material in the alveolar space. […]

B1: F-652: recombinant IL-22 dimer consisting of two monomeric subunits each comprising a sequence shown in SEQ ID NO: 24 (protein)
chain 1: APISSHCRLDKSNFQQPYITNRTFMLAKEASLADNNTDVRLIGEKLFHGVSMSERCYLMKQVLNFTLEEVLFPQSDRFQPYMQEVVPFLARLSNRLSTCHIEGDDLHIQRNVQKLKDTVKKLGESGEIKAIGELDLLFMSLRNACIGSGGGSGGGGSGGGGSVECPPCPAPPVAGPSVFLFPPKPKDTLMISRTPEVTCVVVDVSHEDPEVQFNWYVDGVEVHNAKTKPREEQFNSTFRVVSVLTVVHQDWLNGKEYKCKVSNKGLPASIEKTISKTKGQPREPQVYTLPPSREEMTKNQVSLTCLVKGFYPSDIAVEWESNGQPENNYKTTPPMLDSDGSFFLYSKLTVDKSRWQQGNVFSCSVMHEALHNHYTQKSLSLSPGK
chain 2: B1 chain 1
modifications: homodimer
CD8+ cells and KRT5+ cells in lungs compared to PBS control [1]: clear trend of decrease
Macrophage Inflammatory Protein-1β (CCL4) expression (RNA-seq) (C57BL/6 mice [2]): decrease
Tnc, COL1a1, Col6a3 and Col1a2 expression (RNA-seq) (C57BL/6 mice [2]): increased
endogenous mouse IL-22 level in BAL (mouse IL-22): 1.22 pg/mL
human IL-22 level in BAL [3]: 27.41 pg/mL
endothelial glycocalyx intensity, F-652 treated vs sham (C57BL/6 mice [4]; high dose LPS injury): no significant difference
endothelial glycocalyx intensity in alveolar capillaries (C57BL/6 mice [4]; low dose LPS injury, sham 63.7): 80.0 Arbitrary Units
sgm-N RNA copies compared to no F-652 treatment (SARS-CoV-2; post-treatment, 100 ng/mL F-652 basolaterally on the day post-viral infection): significantly lower
mapping of RNA-seq reads to the SARS-CoV-2 genome compared to no F-652 treatment (SARS-CoV-2; pre-treatment and post-treatment with 100 ng/mL F-652): reduced mapping
sgm-N RNA copies compared to no F-652 treatment (SARS-CoV-2; pre-treatment, 100 ng/mL F-652 for 18 hours before infection): significantly lower
ratio of phosphorylated STAT3 to total STAT3 (STAT3): significantly higher
histopathology injury score (scale 0-4) (C57BL/6 mice [5]; high-dose LPS injury, sham 2.0): 1.0
histopathology scores, F-652 treated vs sham (C57BL/6 mice [5]; low dose LPS injury): did not show any difference
